# Patent publication US20080317769A1, “Vaccine Composition Comprising Alpha-Galactosylceramide as an Adjuvant For Intranasal Administration” (priority 2005, published 2008)
# B1: OVA: model antigen given intranasally at 100 μg alone or together with αGalCer (protein, UniProt P01012 2-386, looked up)
# Ovalbumin: GSIGAASMEFCFDVFKELKVHHANENIFYCPIAIMSALAMVYLGAKDSTRTQINKVVRFDKLPGFGDSIEAQCGTSVNVHSSLRDILNQITKPNDVYSFSLASRLYAEERYPILPEYLQCVKELYRGGLEPINFQTAADQARELINSWVESQTNGIIRNVLQPSSVDSQTAMVLVNAIVFKGLWEKAFKDEDTQAMPFRVTEQESKPVQMMYQIGLFRVASMASEKMKILELPFASGTMSMLVLLPDEVSGLEQLESIINFEKLTEWTSSNVMEERKIKVYLPRMKMEEKYNLTSVLMAMGITDVFSSSANLSGISSAESLKISQAVHAAHAEINEAGREVVGSAEAGVDAASVSEEFRADHPFLFCIKHIATNAVLFFGRCVSP
# System: EG7 tumor cells
# Assay: EG7 tumor challenge after intranasal immunization with OVA and αGalCer
# Type: in vivo
# Settings: C57BL/6 mice
# Description: To confirm whether αGalCer could be used as a nasal vaccine adjuvant inducing anticancer activity, C57BL/6 mice were immunized with 100 μg of OVA alone or together with αGalCer (0.125, 0.5, 2.0 μg) by the intranasal administration three times at one-week intervals. Two weeks after the final immunization, 3×10^6 EG7 tumor cells were subcutaneously inoculated in the left flank of the immunized mice. On the 14th day of the inoculation, the mice were sacrificed and the palpable tumors were weighed.
molecule,measurement,setting,value
B1,mice with tumor masses,"100 μg OVA alone intranasal, 3×10^6 EG7 cells s.c., day 14",all mice
same,tumor weight compared with vehicle alone,"OVA alone through the nasal cavity, p<0.05",significantly heavy
